Experimental findings from US20110059889A1 (SYNTONIX PHARMACEUTICALS, published 2011) are described below.

Experiment [1] concerns the target T1, soluble human FcRn (shFcRn) (human, UniProt P55899 24-297; P61769 21-119).
T1 construct: Biotinylated for the ELISA, amine-coupled to a CM5 chip for SPR; also called biotinylated shFcRn
In words: SPR pH 6; Peptide No. 31: lower-case c at both Cys (QRF-c-…-c-NGP).
Description: The following steps were performed to cross-link soluble human or cynomolgus FcRn to the dextran surface of a CM5 sensor chip (Biacore AB, Uppsala, Sweden) by an amine coupling reaction involving 1-ethyl-(3-dimethylaminopropyl)-carbodiimide hydrochloride (EDC) (Biacore AB, Uppsala, Sweden) and N-hydroxysuccinimide (NHS) (Biacore AB, Uppsala, Sweden) as recommended by Biacore (BIAapplications Handbook, version AB, section 4.2, Biacore AB, Uppsala, Sweden). […] Residual sites on the FcRn flow cell were blocked with 1 M ethanolamine hydrochloride pH 8.5 (Biacore AB, Uppsala, Sweden). A control flow cell was blocked with ethanolamine for reference subtraction. For analysis of the monomeric peptides, FcRn was coated to a final density of 4000-5000 response units (RU). For analysis of the peptide dimers, FcRn was coated to a density of 2000-2500 RU. All SPR measurements were performed using a BIACORE 3000 Instrument (Biacore AB Uppsala, Sweden). For measurements done at either pH 6 or pH 7.4, experiments were performed in 50 mM phosphate, 100 mM sodium chloride, 0.01% surfactant P20 (Biacore AB, Uppsala, Sweden).
Ten, 2-fold dilutions of the peptide were injected over the FcRn-CM5 chip at a rate of 20 μl/min for 2 min. The peptide was dissociated from the chip for 2.5 minutes with buffer. […] Sensorgrams were generated and analyzed using BiaEval software version 3.1 (Biacore AB, Uppsala, Sweden). […]

Experiment [2] deals with T1, soluble human FcRn (shFcRn). Kind of experiment: IgG competition ELISA.
Description: The wells were coated with 100 μl/well of 1 μg/ml biotinylated-shFcRn in Buffer A. The plate was sealed and incubated at 37° C. for 2 hours. Afterwards, the plate was washed with 200 μl/well of Buffer B (Buffer B: 100 mM MES pH 6, 150 mM NaCl, 0.5% BSA IgG-free (Jackson ImmunoResearch, West Grove, Pa.), 0.05% Tween-20). […] To allow for mixing, the plate was rocked for 2 minutes, sealed and incubated at 37° C. for 2 hours. […] The plate was covered, incubated for 30 minutes at room temperature and washed 4 times with 200 μl/well of ice-cold buffer B. SureBlue TMB substrate solution (100 μl/well, KPL, Gaithersburg, Md.) was added and the plate was allowed to incubate at room temperature until color developed, which took 5 to 10 minutes. Once color developed, 100 μl/well of TMB stop solution (KPL, Gaithersburg, Md.) was added and the absorbance was measured at 450 nm. The data was plotted as absorbance vs. peptide concentration to derive the inhibitory concentration 50% (IC₅₀) values.

Bridge positions count the residues as written; N and C are the ends. Square brackets hold non-standard residues; d marks the D form. Ends that are not written are not given here.

T1 sequence (P55899 24-297 limits assumed, chain 1 of 2): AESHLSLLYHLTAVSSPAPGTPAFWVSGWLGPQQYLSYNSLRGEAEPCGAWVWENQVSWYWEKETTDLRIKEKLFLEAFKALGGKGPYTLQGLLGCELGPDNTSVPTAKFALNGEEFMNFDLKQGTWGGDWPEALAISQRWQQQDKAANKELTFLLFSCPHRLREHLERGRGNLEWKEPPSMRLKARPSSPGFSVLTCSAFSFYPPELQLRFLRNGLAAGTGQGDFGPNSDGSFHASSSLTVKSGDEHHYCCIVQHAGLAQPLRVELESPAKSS
T1 sequence (P61769 21-119 limits assumed, chain 2 of 2): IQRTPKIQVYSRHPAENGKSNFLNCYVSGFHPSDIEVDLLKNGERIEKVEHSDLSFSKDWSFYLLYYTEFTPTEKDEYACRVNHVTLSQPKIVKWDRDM

B1: Peptide No. 31 (peptide)
peptide: QRF[dC]TGHFGGLYP[dC]NGP-NH2
modifications: disulfide 4-14; N-terminus assumed
SMILES: CC(C)C[C@@H]1NC(=O)CNC(=O)CNC(=O)[C@H](Cc2ccccc2)NC(=O)[C@H](Cc2c[nH]cn2)NC(=O)CNC(=O)[C@H]([C@@H](C)O)NC(=O)[C@H](NC(=O)[C@H](Cc2ccccc2)NC(=O)[C@H](CCCNC(=N)N)NC(=O)[C@@H](N)CCC(N)=O)CSSC[C@H](C(=O)N[C@@H](CC(N)=O)C(=O)NCC(=O)N2CCC[C@H]2C(N)=O)NC(=O)[C@@H]2CCCN2C(=O)[C@H](Cc2ccc(O)cc2)NC1=O
For the molecule B1, binding in experiment [1] was characterised by a dissociation constant (Kd) of 200 µM. The IC50 in experiment [2] is greater than 500 µM.

One may read the Kd as the constant that tells how readily two partners part at equilibrium. Read a low Kd as tighter binding. Broadly, the IC50 is the point on the concentration scale where inhibition reaches its midpoint. Read a high IC50 as weaker potency in that assay.
